Publication PMC8847413
pKd: −log10 of the molar value.

Legend:
[1] = target: prefusion-stabilized S protein (S trimer) of SARS-CoV-2 G614 variant (SARS-CoV-2) (UniProt P0DTC2); assay: BLI
[2] = target: prefusion-stabilized trimeric S protein (S ectodomain) of SARS-CoV-2 Delta (B.1.617.2) variant (SARS-CoV-2) (UniProt P0DTC2); assay: BLI

human ACE2 peptidase domain (PD), sequence (Q9BYF1 17-615): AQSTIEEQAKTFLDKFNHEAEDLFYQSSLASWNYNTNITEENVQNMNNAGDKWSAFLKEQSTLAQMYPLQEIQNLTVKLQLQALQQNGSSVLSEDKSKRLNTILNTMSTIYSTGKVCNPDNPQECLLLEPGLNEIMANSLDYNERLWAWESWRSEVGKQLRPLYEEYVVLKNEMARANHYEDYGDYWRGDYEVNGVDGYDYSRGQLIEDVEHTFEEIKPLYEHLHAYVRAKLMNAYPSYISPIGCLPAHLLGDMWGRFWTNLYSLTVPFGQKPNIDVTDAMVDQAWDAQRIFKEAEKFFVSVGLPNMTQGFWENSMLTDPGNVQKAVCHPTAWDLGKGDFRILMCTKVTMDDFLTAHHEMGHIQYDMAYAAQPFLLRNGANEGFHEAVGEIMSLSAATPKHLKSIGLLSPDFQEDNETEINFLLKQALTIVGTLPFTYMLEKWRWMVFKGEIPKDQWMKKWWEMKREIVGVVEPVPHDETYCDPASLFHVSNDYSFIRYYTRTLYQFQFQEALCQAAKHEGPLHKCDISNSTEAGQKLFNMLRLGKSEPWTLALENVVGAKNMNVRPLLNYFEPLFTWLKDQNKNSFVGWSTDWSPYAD

## human ACE2 peptidase domain (PD) (from UniProt Q9BYF1) (domain or fragment)
[1]
  pKd: 7.06
[2]
  pKd: 7.39
